One molecule from paper PMC12153317 (mBio, 2025) can be followed below.

The target of the experiment is HA head of A/American black duck/New Brunswick/00464/2010(H4N6) (Influenza A virus A/American black …, strain). Nature of the experiment: crystal structure. The note with it: both partners purified.

B1: S8V1-157 Fab (crystallization) (Fab, V domains shown)
VH: EVQLVQSGAEVKKPGASVKVSCKVSGYRLTALSMHWVRQAPGKGLEWMGGFDPEEDETIYAQNFQGRVTLTEDTSTDTVYMELSSLRSEDTGVYYCATLMGANPFDYWGQGTLIIVSG
VL: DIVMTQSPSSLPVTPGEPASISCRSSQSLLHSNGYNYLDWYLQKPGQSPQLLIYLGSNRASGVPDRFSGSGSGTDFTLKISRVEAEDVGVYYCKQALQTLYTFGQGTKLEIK
notes: source: 293F, transient transfection, purified (TALON resin, Superdex 200)
Regarding B1, the binding result is on record as “binds”.
